Measurements as given in the supplement of paper PMC12636428.

Test system: Saccharomyces cerevisiae
Assay: transcriptional activation domain activity (GFP:mCherry ratio, weighted mean of sorted bins, harmonized to initial dataset scale) (arbitrary fluorescence ratio units); higher = stronger transcriptional activation
Details: beta-estradiol 1 µM; induction time 4 h
Summary of the method: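 After a 1:5 dilution into SC with 1 uM beta-estradiol and 4 hours at 30 °C, yeast diploids carrying a GFP reporter and URA3-integrated barcoded tiles were sorted into 8 bins by GFP:mCherry ratio. The tiles were fused to an estradiol-inducible synthetic transcription factor. Barcodes were sequenced, tiles below 50 reads were discarded, and activation activity was taken as the read-weighted mean of bin median fluorescence, averaged across barcodes and linearly mapped onto the initial dataset scale.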

Sequence | transcriptional activation domain activity
TLPFQIFMICDLTVPLKLNGFLVNGSLNLLGIMMVRVTFSCLGLAQLFQLIIC | 62100
TLPGGTTGEFGRDRPTTNAFGSSTGAFGAPAANNNPFGAPAQPAGAFGQPSAL | 44800
TLPQEDTQSTEDTKVEKKLVIASLLSRMLIPTIIMAPLLALTAKFVPVSILDD | 52400
TLQRIVLDFFTAPCFSDVIVADILTSFARVFGDLSTVFFTLVWGSCPHWIPPF | 61200
TLRQELPNFFIFGLNNTSIYSSNILLWEPRYTGLQIRGKWSYLMLAATIRWSL | 54000
TLRVDSLTGMIRIIRHVDFDGLPRPSGSGVITPFGIVFGGVCRGYWLWLWKVD | 35800
TLRVLLLQISPLAYARGLKDFLIHLISWTDGTWDSLDPLPWWWLYHVYWPLQF | 81000
TLRVSNLLCWFLLCLTSVPGLGIVYYTYFLLPDTPYCLWALCLYTKSFIAPLM | 63000
TLSGVLMLFWQPNGQRLIGNATLWCWIRPGLEFYRIVLNYGWIWIILGVNICT | 73100
TLTDKCFGAFEDENAIHFHNFHVVSPKYMVILVNCLYMWDLMKTVGLRKPWSG | 68200
TLTLLLRERGYELFLLVHFIFVLYVNFLSCLSVRSPLCIVYYGAWPSMIVWGI | 64600
TLTQRLSGSMIYIWCSGGVVFAIVLALQVLVLFALLNVITCLEGHMLSIHGWP | 39900
TLTSPQGSDLASNSATQYKPDLEDFLMQNSNFNGLMINPSSLVEVVGGYNDPN | 83200
TLVEINGNQIRGSSELMDKDNIYLHLRRIFTCFQIEFLKLTGLPFLLREKLPG | 63400
TLWLLLLCLRCSTSVLALLTLLSCSSFPPFLGFHLSRALWPVLRCPLPSMLCS | 59400
TLYWSYGMYIMYNGPHWLNTSYYWIDYPHILISRQTKTYYLMQLAFWVQQVYT | 41600
TMDKQIKYFWSSPCKFISLIYFANRYIGILEAISEIARLGFIWLQNLADILLM | 43800
TMEMAWLDMGRFFYFLFFYFLFFLLSSFFVFFYSFIYFFFSLLLFFFILWLEM | 45900
TMFHGLLFHLCHGAAVLVVWSFHHVVCSMRDDEETLQVMEELDYVIHVLNAFA | 47800
TMHLNVVFISVVVNGFCSEHGFVSMRLWAVYKSLSLVLWMSFFIVLCWVGMIV | 53600
TMSMLCLEGFIIIYLLRETTLSFLDIIRCFSSMDPVALKLFVRCFLYTLVMCG | 77500

Sequence | transcriptional activation domain activity
TMSTVMVVGSDDKKVKEVGEALKSKLGVKGGGKGSRWSGKFTGVWKDSREGAL | 27000
TMWHCMDLLFCVAPGRLIRETASGLYVHHCFECGTKLEPQPLHSLTITAYHLA | 52300
TMYYDAIWLMWKDHSLQGWEVAHNTFDQLHVVLDDHLLYPVLNLLMIVIILPD | 51200
TNAENSSQPSLAQWAKGREGVLMISSDVISNVQISIGKSRLASLLISLCLQRM | 47300
TNLLDRFQTYMERSRFHLLDLLFDFSSHFSAPLMKLAMQHARRWRRFSIFAFW | 45100
TNLYDHAVTPEILLEQLAYVDNFIPSLDNEFSNVDWNVNTTHNNANNNGADTF | 47300
TNNEFEGESDDFVHSPYLNSEADFSQILSSAPPVHHDPNETHQENQDIIDRFA | 66800
TNNWNPVHWDWNIFRQIVNFNWVLLFYFIFLLFSLFFHFIPVSCISIFYYFFS | 25100
TNPAAAVAAAVAAKKTDTEEETTPKEDKAEEAKPEEEKKEEKKEEKAAAKSRS | 33900
TNPAFANSSLPPIHSSFSTLSNPPSIFCVLPPFLPSFPLSFPFFFSFPFFLFL | 52500
TNPDKIRLIPGFKYLQLVLGRDQYCREILAMMARMGFLMPKTMYSTLLRLWLL | 65200
TNSEEDALDAWDLCATKMSLALVQLVQMFEEKELLSSLNVLLRLVTRISTAIP | 45700
TNTGFGASNTPAGGAGGGGGIFGSGTSGFGGGTSAFGAANNNNAFGAKPAFGA | 45600
TPANSSSTMALVPKEEQKEEEEKSTPADSGSTTASVPKEEEKEEEKSTPADSG | 44400
TPDSLCEAVTDLVRDIWYPLMTWMEFANPASGYISLDAPLFRAVLSLFHHFFA | 42900
TPECLTKINWNVLRLSSYLSSVATSHFLELSTIIGITLIQLIWLLHPPCLLFL | 45400
TPEFHGQADVDTGILTLKKDEDIRDHPDAARFAEESKAARITKRGAREGLEHV | 22000
TPFALFSSCYALNATVDQDYPLLFRRCVLGDTLWVLAILLCILWSLLVCFAFW | 31300
TPFLFYRPLPPQYFCKFLLYYGGLVWWVLYSGFFFYFILGRGYRKIFLSYFCL | 53100
TPGGSSGGTGAAVASSFSVFGTGTDTVNSLRSPASANSLFSCRPTRGLITRNG | 58000
TPIDVETDDPDIYIKPALDGSLNLLTSIVRYGQVIRGLSSCIIHLFNNVHLVR | 43000

Sequence | transcriptional activation domain activity
TPIFMLIRIMIIGAHGVYQTAYRIVTKTQWEDGREIEDVYTYVGNERIDIKIV | 28300
TPKKAKKSAERVDDSDASDDGDGYGGGGGEDGRKRAAKPKKGKRAAAGGGSAG | 26200
TPLLLFFWCLCWFLSRSWYVYCFCYLNDWYNKVMMLWNLFHHHRFLLLYTRGL | 35200
TPLRISLFLVRVRCRHPSYSKWLPVEIKRCGVLLMSRLSLSLYRIFLNHITLN | 59900
TPNNLTSFDDCHLIDGLELTYSDLLVLDDFLAFDFLGLDHFIFMVTPPWENVV | 81000
TPQCPPTPTPPPAPASKSRPPPHTPTSTRARNNPPPPSCACGGCTRATSGSRR | 33800
TPSSLLHLFPRVQEFLLFYSIHLSISWVWSCLILFYDVSFTIFSIFIILLLFL | 60300
TPSSTATTAAPAATSAATPSLFSKPATTSAAPATATAAASTPSGNLFGAKAAA | 47500
TPSTCLSFLPFFPLLLPLFFSFPLSLIFFLCNFSFQFFFSSCFLSFYLFVVSF | 66100
TPTAQYQQGYHFRHLRYVMCLSVAVLIVGAVSLTIPLPISARIASILRFWEHD | 44200
TPVYIGPLDGGAGDAQHGRKGGESRFQITPRKTVRLGEDGKGRKVSVEQRIVC | 49400
TPYWVLWNLRSSYGPVWQFLLKWIPFNMLLHRYYHCVKMELGYLFIFGNDFLR | 56300
TQAGPSTGGGVFGQPSQPSTSTNAFGGGNGLFGSKPTTGFGTATTPAAGVPAP | 53600
TQATIVGDFFVCLMDVAGHDLAILLINWRAQTGTWLIFDSLEPLMWPHRITLV | 40300
TQLIELNVPMGKVGMVVDNSSDKLEIEDIVVYWSLRSRPVWLVYVRAFLKSII | 56200
TQPIDIAASNQQNGEIAQLWDFNVDQFNMTPSNSSGSATISAPNSFTSDIPQY | 57300
TQQLEFWLPWQWIQANVFFPCVSYIYFRDWREMMEILLSYRSIEMDGLAFCLV | 69300
TRCLLMYMYFLQDIGIYIYCILILNLFRKVRRLIPFPSRVLMVLHVITICIFT | 74300
TRDDEEGGEEEEEEEEEEEEDEEDEDPESLPHIHKALEIHYQIHLSPTYSVPV | 52700
TREMREKVEREREGRRRAREEKEKRGGGGGGGKGKKGRGGKGKGKAVPGAGAG | 49400
TRGAPPAPPPPPPPPARPSESGAPPPPPPPPARGAPPPPPPPPPPAGGAPPPP | 36500

Sequence | transcriptional activation domain activity
TRHARALEVIKFTKRILSVGGMKYRERMFWWCPIDSATVRAWMLWVLGSIPLV | 62900
TRHLHFTRYHIFTNSKCILLAVGKLLYCACALGWYGLIVGFVVTVLMLCQDSL | 22600
TRKLVFKWPYVPYLLGRYTMICCLLFVWVLLVNPIDCVHNELFIALVACMAVC | 22500
TRMLLHWFHCQDNVWYYYVAFFFAELLVYTVMIVSIGSILFQWRFFCRVAYKM | 32000
TRNSCVKIEKEDSLTNLNEIDFTNMFCNDNFIQNYNQGLMELLTEPTPGPSSS | 64700
TRPYEMALKFVNVTDTNELLRMRQFACDICDYAPHLLDNDNISLLIVLLILTR | 45000
TRQYIINILFGIMTVENFDLEDIIYFYMFIARNLPKYPQHIMLPGTSLHQVLV | 54100
TRSFNIMLGMVTFWGVFSLFAIAFQCGLPAPWVFIPSECPTGGYLYYPVIILN | 56000
TRSKKSAPRTSESSEDEEQRPSSRPSSRASRPASRASASRKRSDSTGTAGGGE | < 6570
TRTLFMVPQLCCAFSSMWLYQILVAVSIYLTNHVGIMMVRVWSYCVAVYVLEV | 69800
TRTRKWWLRTVWACTWLIPSFLLSSVGRMKRPDVRLAWREKVTIFWLIFLFNG | 68900
TRTVLFSRGACVILFPWLMYAVGLLLHMIIVNYRLYILYWLLVLKRPIGGFKF | 57500
TRVMAEENGMTVDEKAFEEAQEAAKEASRKARGGKGGEEAVALDVHDLAALEK | 36200
TRVQDEWVSITKLARQAKESAGKEKKGKGGRGVYSQNSKVWEGVVKLLVAIVA | 46300
TRYCWGFINLWYSSLYLSGSIILNLAAFFLLPVHLFVSLMQTHLLQWELLLAF | 59500
TSAAPAFGTSGFSAAKPATPAQASAFGSPAALGAKASPWGAQNSSSSGTTAGA | 31100
TSAFGGGNTGGGLFGQQNKPTTGFGSSPAPAGGLFGGGSGTTTSTPAFGAAAA | 37300
TSAFGNLGSSSSTPSVFGGAGAGTNNTGSGGGGGGGFSAFAGKPTAFGAGAAG | 39400
TSAFGQTNNAASPFGGTSNTAAGGFGSPATGGFGTNTAGGAFGSKPAFGATTT | 38300
TSAVLDLGDERDVADYDVISLAEDYVGRDNRKGQKRAMRLDESGPRMEIKVVK | 45400
